PMC5233953

Legend:
[1] = biological target: FrpD_(43-271) protein (Neisseria meningitidis); experiment: cross-linking; FrpD-FrpC_(1-414) complex (1 mg/ml, 14 μM) with a 1:1 mixture of d0/d4 BS2G, 30 min; 70-kDa band digested with trypsin, nano-ESI-FTICR mass spectrometry
[2] = biological target: FrpD_(43-271) protein (Neisseria meningitidis); experiment: SAXS; beamline X33 EMBL, room temperature; FrpD 1–9 mg/ml, FrpD-FrpC_(1-414) complex 1–5 mg/ml; molecular mass from the Porod volume
[3] = biological target: FrpD_(43-271) protein (Neisseria meningitidis); experiment: SEC; Superdex 200 HR column; free proteins and an equimolar mixture of purified FrpD and FrpC_(1-414)

Measured: stoichiometry N

B1: FrpC_(1-414), the N-terminal domain of FrpC (domain or fragment)
chain: MNEGEVVLTPEQIQTLRGYASRGDTYGGWRYLANLGDRYADNAAAIVGKDTNLNGLNLWMKKGVENLWDDTVGKKTRLEKFDRVALQHFSQYVDLINKNNGRLPNTSEIERSYYKAVTYHGVSSSAAIDLVINRSLPDMADGYWALGLGIEAERIHNEQAVNNPNGSERDNRKQLISALDKGFDGSFKEKHFTFLQSVMMDLTKLGVEYTIDGWQKIGGWGNGIINDLYKSVVKREWTGIFEIVNNNIKQGNEAFKNEINSLVHDMKAAGKEFGDDLNTQWNNLTQAAEIIYNDIVDNTSQGIEKGVKAIKELSEKMKNAASDLADGSAEKAKQVVEDLAQAAKEAYENAKSTAEKAAQAAREFFKGLPSFKDLAEKFRDLFPNPEGWIDDGHQCFAPWVKETKKRNGKYHVYD
1: all assays above
